Data taken from publication PMC8546573.

Columns and labels:
[1] = target: biotinylated soluble human PDGFRα (UniProt P16234); assay: cell-based binding (staining of transfected 293E cells with soluble PDGFRα and 13H11 scFv); details: read off a plot
[2] = target: HCMV gHgLgO trimer with full-length gH on HEK293-6E cells, gO R214A (human cytomegalovirus, strain AD169 | human cytomegalovirus, strain TR) (UniProt P12824); assay: flow cytometry on cells; HEK293-6E cells cotransfected with full-length gH, gL and gO (wt or mutant) stained with 4 μg/ml biotinylated PDGFRα in PBS with 0.5% BSA, room temperature, half an hour, then Alexa Fluor 647-streptavidin; PDGFRα staining set against staining by the gH antibody 13H11 and compared with wt
[3] = target: HCMV gHgLgO trimer with full-length gH on HEK293-6E cells, gO R236N/P238S (human cytomegalovirus, strain AD169 | human cytomegalovirus, strain TR) (UniProt P12824); assay: as above
[4] = target: HCMV gHgLgO trimer with full-length gH on HEK293-6E cells, gO Y240A (human cytomegalovirus, strain AD169 | human cytomegalovirus, strain TR) (UniProt P12824); assay: as above
[5] = target: HCMV gHgLgO trimer with full-length gH on HEK293-6E cells, gO K359A (human cytomegalovirus, strain AD169 | human cytomegalovirus, strain TR) (UniProt P12824); assay: as above
[6] = target: HCMV gHgLgO trimer with full-length gH on HEK293-6E cells, gO R236A (human cytomegalovirus, strain AD169 | human cytomegalovirus, strain TR) (UniProt P12824); assay: as above

Substance	other: ratio of PDGFRα/13H11 binding [1]	other results
HCMV gHgLgO trimer with full-length gH on the surface of HEK293-6E cells, gO wild type (from UniProt P12824;P16832) gO:E346A	1.2	
HCMV gHgLgO trimer with full-length gH on the surface of HEK293-6E cells, gO wild type (from UniProt P12824;P16832) gO:F113A	0.75	
HCMV gHgLgO trimer with full-length gH on the surface of HEK293-6E cells, gO wild type (from UniProt P12824;P16832) gO:F113N	0.73	
HCMV gHgLgO trimer with full-length gH on the surface of HEK293-6E cells, gO wild type (from UniProt P12824;P16832) gO:F138A	0.82	
HCMV gHgLgO trimer with full-length gH on the surface of HEK293-6E cells, gO wild type (from UniProt P12824;P16832) gO:K123A	0.87	
HCMV gHgLgO trimer with full-length gH on the surface of HEK293-6E cells, gO wild type (from UniProt P12824;P16832) gO:K194A	1.1	
HCMV gHgLgO trimer with full-length gH on the surface of HEK293-6E cells, gO wild type (from UniProt P12824;P16832) gO:P343A	1.2	
HCMV gHgLgO trimer with full-length gH on the surface of HEK293-6E cells, gO wild type (from UniProt P12824;P16832) gO:Q117A	0.81	
HCMV gHgLgO trimer with full-length gH on the surface of HEK293-6E cells, gO wild type (from UniProt P12824;P16832) gO:R119A	0.9	
HCMV gHgLgO trimer with full-length gH on the surface of HEK293-6E cells, gO wild type (from UniProt P12824;P16832) gO:R232A	0.96	
HCMV gHgLgO trimer with full-length gH on the surface of HEK293-6E cells, gO wild type (from UniProt P12824;P16832) gO:R239A	1.1	
HCMV gHgLgO trimer with full-length gH on the surface of HEK293-6E cells, gO wild type (from UniProt P12824;P16832) gO:R338A	0.95	
HCMV gHgLgO trimer with full-length gH on the surface of HEK293-6E cells, gO wild type (from UniProt P12824;P16832) gO:R349A	1	
HCMV gHgLgO trimer with full-length gH on the surface of HEK293-6E cells, gO wild type (from UniProt P12824;P16832) gO:T116A	0.62	
HCMV gHgLgO trimer with full-length gH on the surface of HEK293-6E cells, gO wild type (from UniProt P12824;P16832) gO:Y371A	1.1	
biotinylated soluble human PDGFRα (from UniProt P16234 24-528) (receptor)		percent of wild-type binding [2]: < 33 % of wt; percent of wild-type binding [3]: 50 % of wt; percent of wild-type binding [4]: < 33 % of wt; percent of wild-type binding [5]: < 33 % of wt; percent of wild-type binding [6]: < 33 % of wt
